From paper PMC7536876 (bioRxiv, 2020)

Tests used:
Experiment in all cases: native MS
[1] = target: HCoV-229E nsp7–8-His6 precursor (HCoV-229E) (UniProt P0C6X1)
[2] = target: PEDV nsp7–8-His6 precursor (PEDV (strain CV777)) (UniProt P0C6Y4)
[3] = target: SARS-CoV nsp7–8-His6 precursor (SARS-CoV (strain Frankfurt-1)) (UniProt P0C6X7)
native MS = target: the molecule itself

“HCoV-229E nsp7–8-His6 precursor (from UniProt P0C6X1) (domain or fragment)” gave a stoichiometry N [1] of 2.

For “PEDV nsp7–8-His6 precursor (from UniProt P0C6Y4) (domain or fragment)”, the stoichiometry N [2] was 2.

For “SARS-CoV nsp7–8-His6 precursor (from UniProt P0C6X7) (domain or fragment)”, the stoichiometry N [3] was 2.

B1: FIPV nsp7 (natural protein)
chain: SKLTEMKCTNVVLLGLLSKMHVESNSKEWNYCVGLHNEINLCDDPDAVLEKLLALIAFFLSKHNTCDLSDLIESYFENTTILQ
In the case of B1, the “stoichiometry N” value (native MS) is reported as 2.

B2: MERS-CoV nsp7 (natural protein)
chain: SKLTDLKCTSVVLLSVLQQLHLEANSRAWAFCVKCHNDILAATDPSEAFEKFVSLFATLMTFSGNVDLDALASDIFDTPSVLQ
In the case of B2, the “stoichiometry N” value (native MS) is reported as 2.

B3: PEDV nsp7 (natural protein)
chain: SKLTDIKCSNVVLLGCLSSMNVSANSTEWAYCVDLHNKINLCNDPEKAQEMLLALLAFFLSKNSAFGLDDLLESYFNDNSMLQ
In the case of B3, the “stoichiometry N” value (native MS) is reported as 2.
